From US9187525B2, “Methods of treating ophthalmic diseases using NPR-B agonists” (Shire Orphan Therapies GmbH, dated 2015)
Numbered stars: 1 amine (or outer) side, 2 acyl side, 3 side chain; on linkers, the order of the positions; unused ones are H or OH. Square brackets hold non-standard residues; d marks the D form. Ends that are not written are not given here. * marks the point of attachment. aFL = (S)-2-((R)-3-amino-2-oxopyrrolidin-1-yl)-3-phenylpropanoic acid, O=C1[C@H](N[*:1])CCN1[C@@H](Cc1ccccc1)C(=O)[*:2]; afL = (R)-2-((R)-3-amino-2-oxopyrrolidin-1-yl)-3-phenylpropanoic acid, O=C1[C@H](N[*:1])CCN1[C@H](Cc1ccccc1)C(=O)[*:2]; 779 = 2-((1S,2R,4R)-bicyclo[2.2.1]heptan-2-yl)acetic acid, O=C(C[C@H]1C[C@@H]2CC[C@H]1C2)*; ctb = (S)-2-amino-3-(tert-butylthio)propanoic acid, CC(C)(C)SC[C@@H](N[*:1])C(=O)[*:2]; Eal = rac-imidazolidine-2-carboxylic acid, O=C(C1N([*:1])CCN1[*:3])[*:2]; 3218 = (S)-2-cyclopentylhexanoic acid, CCCC[C@H](C(=O)*)C1CCCC1; Pro(trans-4-NH2) = O=C([C@@H]1C[C@@H](N[*:3])CN1[*:1])[*:2]; 785 = 2-phenethyl-benzoic acid, O=C(c1ccccc1CCc1ccccc1)*; Sni = (S)-nipecotic acid, O=C([C@H]1CCCN([*:1])C1)[*:2]; 6013 = (2-butoxy-ethoxy)-acetic acid, CCCCOCCOCC(=O)*; Propanoyl(3-cHex) = O=C(CCC1CCCCC1)*; Gly(NCH2CH2Ph) = O=C(O)CNCCc1ccccc1; Gly(cPent) = N[C@H](C(=O)O)C1CCCC1; Hydrocinnamoyl = O=C(CCc1ccccc1)*; Hyp = O=C(O)[C@@H]1C[C@@H](O)CN1; ES‑283‑049 = not defined here; NMeL = CN[C@@H](CC(C)C)C(=O)O; Chg = N[C@H](C(=O)O)C1CCCCC1; Decanoyl = CCCCCCCCCC(=O)*; Nle = CCCC[C@H](N)C(=O)O; Nphe = O=C(O)CNCc1ccccc1; Octanoyl = CCCCCCCC(=O)*; Thz = O=C(O)[C@@H]1CSCN1; Che = not defined here; leu = not defined here; Occ = octanoic acid

B1: JAL-1634 (peptide)
peptide: [Occ][Sni][Nphe][leu]L[Hyp][NMeL]DRI-NH2
modifications: reading uncertain; also: printed as Occ-Sni-NPhe-leu-Leu-Hyp-Nml-Asp-Arg-Ile-NH2
B2: JAL-1635 (peptide)
peptide: [Occ][Sni][Gly(NCH2CH2Ph)][leu]L[Hyp][NMeL]DRI-NH2
modifications: reading uncertain; also: printed as Occ-Sni-NHfe-leu-Leu-Hyp-Nml-Asp-Arg-Ile-NH2
B3: JAL-1646 (peptide)
peptide: [Occ][Sni]F[leu]L[Hyp][NMeL]D[ES‑283‑049]
modifications: reading uncertain; also: printed as Occ-Sni-Phe-leu-Leu-Hyp-Nml-Asp-(ES-283-049)
B4: JAL-1661 (peptide)
peptide: [Hydrocinnamoyl][Sni]F[leu]L[Hyp][NMeL]DRI-NH2
modifications: reading uncertain; also: printed as 1281-Sni-Phe-leu-Leu-Hyp-Nml-Asp-Arg-Ile-NH2
B5: JAL-1664 (peptide)
peptide: [3218][Sni]F[leu]L[Hyp][NMeL]DRI-NH2
modifications: reading uncertain; also: printed as 3218-Sni-Phe-leu-Leu-Hyp-Nml-Asp-Arg-Ile-NH2
B6: JAL-1665 (peptide)
peptide: [6013][Sni]F[leu]L[Hyp][NMeL]DRI-NH2
modifications: reading uncertain; also: printed as 6013-Sni-Phe-leu-Leu-Hyp-Nml-Asp-Arg-Ile-NH2
B7: JAL-1666 (peptide)
peptide: [Decanoyl][Sni]F[leu]L[Hyp][NMeL]DRI-NH2
modifications: reading uncertain; also: printed as 5587-Sni-Phe-leu-Leu-Hyp-Nml-Asp-Arg-Ile-NH2
B8: JAL-1668 (peptide)
peptide: XGXFLLXXDRI
HELM: PEPTIDE1{[O=C(CCc1ccccc1)[*:2]].G.[O=C([C@H]1CCCN([*:1])C1)[*:2]].F.[dL].L.[Hyp].[meL].D.R.I.[am]}$$$$V2.0
SMILES: CC[C@H](C)[C@H](NC(=O)[C@H](CCCNC(=N)N)NC(=O)[C@H](CC(=O)O)NC(=O)[C@H](CC(C)C)N(C)C(=O)[C@@H]1C[C@@H](O)CN1C(=O)[C@H](CC(C)C)NC(=O)[C@@H](CC(C)C)NC(=O)[C@H](Cc1ccccc1)NC(=O)[C@H]1CCCN(C(=O)CNC(=O)CCc2ccccc2)C1)C(N)=O

Target: T1, natriuretic peptide receptor-B (human)
T1 chain: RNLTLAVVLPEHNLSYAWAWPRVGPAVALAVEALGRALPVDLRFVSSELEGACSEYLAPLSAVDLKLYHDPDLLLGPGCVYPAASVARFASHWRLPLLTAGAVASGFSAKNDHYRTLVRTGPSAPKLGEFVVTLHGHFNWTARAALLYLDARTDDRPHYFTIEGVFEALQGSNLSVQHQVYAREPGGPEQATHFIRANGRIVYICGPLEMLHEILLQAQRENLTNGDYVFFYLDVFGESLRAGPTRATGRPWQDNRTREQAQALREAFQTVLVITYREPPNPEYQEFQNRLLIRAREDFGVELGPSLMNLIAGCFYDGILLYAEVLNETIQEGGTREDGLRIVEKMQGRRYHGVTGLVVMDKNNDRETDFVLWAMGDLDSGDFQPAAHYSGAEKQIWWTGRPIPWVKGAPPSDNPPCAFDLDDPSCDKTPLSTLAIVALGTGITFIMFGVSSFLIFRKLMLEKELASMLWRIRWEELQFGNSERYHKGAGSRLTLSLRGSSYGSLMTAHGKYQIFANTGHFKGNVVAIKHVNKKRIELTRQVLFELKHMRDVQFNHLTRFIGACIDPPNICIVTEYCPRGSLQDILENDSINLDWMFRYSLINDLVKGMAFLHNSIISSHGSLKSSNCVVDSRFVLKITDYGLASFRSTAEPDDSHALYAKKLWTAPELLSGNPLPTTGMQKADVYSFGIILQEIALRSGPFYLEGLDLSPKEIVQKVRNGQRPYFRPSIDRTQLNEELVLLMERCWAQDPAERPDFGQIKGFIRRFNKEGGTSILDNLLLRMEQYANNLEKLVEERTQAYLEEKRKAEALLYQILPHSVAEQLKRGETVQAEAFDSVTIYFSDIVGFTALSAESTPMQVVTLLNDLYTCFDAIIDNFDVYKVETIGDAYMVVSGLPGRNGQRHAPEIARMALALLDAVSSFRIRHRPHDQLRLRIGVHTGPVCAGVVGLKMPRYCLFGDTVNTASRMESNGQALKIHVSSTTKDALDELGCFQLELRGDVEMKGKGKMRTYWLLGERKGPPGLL
Assay: cell-based or functional assay
In the case of [Occ][Sni]F[ctb]L[Hyp][NMeL]DRI-NH2 [JAL-1623], the “EC50 group, cGMP in GTM-3 cells” value is reported as ≤ 1 µM. With [Occ][Sni]F[leu][Nle][Hyp][NMeL]DRI-NH2 (reading uncertain; also: printed as Occ-Sni-Phe-leu-Nle-Hyp-Nml-Asp-Arg-Ile-NH2) [JAL-1624] the “EC50 group, cGMP in GTM-3 cells” value was ≤ 1 µM. For [Occ][Sni]F[leu]L[Hyp]IDRI-NH2 (reading uncertain; also: printed as Occ-Sni-Phe-leu-Leu-Hyp-Ile-Asp-Arg-Ile-NH2) [JAL-1625], the “EC50 group, cGMP in GTM-3 cells” value was ≤ 1 µM. With [Occ][Sni]F[leu]L[Hyp][Gly(cPent)]DRI-NH2 (reading uncertain; also: printed as Occ-Sni-Phe-leu-Leu-Hyp-Cpg-Asp-Arg-Ile-NH2) [JAL-1626] the “EC50 group, cGMP in GTM-3 cells” value was ≤ 1 µM. In the case of [Occ][Sni]F[leu]L[Hyp][Chg]DRI-NH2 (reading uncertain; also: printed as Occ-Sni-Phe-leu-Leu-Hyp-Chg-Asp-Arg-Ile-NH2) [JAL-1627], the “EC50 group, cGMP in GTM-3 cells” value is reported as ≤ 5 µM. B1 was tested, and the “EC50 group, cGMP in GTM-3 cells” value was ≤ 15 µM. With B2 the “EC50 group, cGMP in GTM-3 cells” value was ≤ 15 µM. For [Occ][aFL][leu]L[Hyp][NMeL]DRI-NH2 (reading uncertain; also: printed as Occ-(aFL)-leu-Leu-Hyp-Nml-Asp-Arg-Ile-NH2) [JAL-1636], the “EC50 group, cGMP in GTM-3 cells” value was ≤ 5 µM. Octanoyl-[dA][dA]FGLKLDRI-NH2 [JAL-0701] was tested, and the “EC50 group, cGMP in GTM-3 cells” value was ≤ 5 µM. With [Occ][afL][leu]L[Hyp][NMeL]DRI-NH2 (reading uncertain; also: printed as Occ-(afL)-leu-Leu-Hyp-Nml-Asp-Arg-Ile-NH2) [JAL-1637] the “EC50 group, cGMP in GTM-3 cells” value was ≤ 5 µM. For [Occ][Sni]F[leu]L[Hyp][NMeL]D[Thz][Che] (reading uncertain; also: printed as Occ-Sni-Phe-leu-Leu-Hyp-Nml-Asp-Eaz-Che) [JAL-1638], the “EC50 group, cGMP in GTM-3 cells” value was ≤ 1 µM. For [Occ][Sni]F[leu]L[Hyp][NMeL]D[Eal][Che] (reading uncertain; also: printed as Occ-Sni-Phe-leu-Leu-Hyp-Nml-Asp-Eal-Che) [JAL-1639], the “EC50 group, cGMP in GTM-3 cells” value was ≤ 5 µM. With B3 the “EC50 group, cGMP in GTM-3 cells” value was ≤ 5 µM. [Occ][Sni]F[leu]L[Hyp][NMeL]EP[Che] (reading uncertain; also: printed as Occ-Sni-Phe-leu-Leu-Hyp-Nml-Glu-Pro-Che) [JAL-1652] was tested, and the “EC50 group, cGMP in GTM-3 cells” value was ≤ 5 µM. In the case of [Occ][Sni]F[leu]L[Pro(trans-4-NH2)][NMeL]VP[Che] (reading uncertain; also: printed as Occ-Sni-Phe-leu-Leu-Tap-Nml-Val-Pro-Che) [JAL-1654], the “EC50 group, cGMP in GTM-3 cells” value is reported as ≤ 1 µM. [Occ][Sni]F[leu][Nle][Hyp][NMeL]DP[Che] (reading uncertain; also: printed as Occ-Sni-Phe-leu-Nle-Hyp-Nml-Asp-Pro-Che) [JAL-1657] was tested, and the “EC50 group, cGMP in GTM-3 cells” value was ≤ 1 µM. With [779][Sni]F[leu]L[Hyp][NMeL]DRI-NH2 (reading uncertain; also: printed as 779-Sni-Phe-leu-Leu-Hyp-Nml-Asp-Arg-Ile-NH2) [JAL-1659] the “EC50 group, cGMP in GTM-3 cells” value was ≤ 5 µM. For [785][Sni]F[leu]L[Hyp][NMeL]DRI-NH2 (reading uncertain; also: printed as 785-Sni-Phe-leu-Leu-Hyp-Nml-Asp-Arg-Ile-NH2) [JAL-1660], the “EC50 group, cGMP in GTM-3 cells” value was ≤ 15 µM. B4 was tested, and the “EC50 group, cGMP in GTM-3 cells” value was ≤ 5 µM. With {Propanoyl(3-cHex)}-[dA][dA]FGLKLDRI-NH2 [JAL-0703] the “EC50 group, cGMP in GTM-3 cells” value was ≤ 15 µM. B5 was tested, and the “EC50 group, cGMP in GTM-3 cells” value was ≤ 15 µM. With B6 the “EC50 group, cGMP in GTM-3 cells” value was ≤ 5 µM. For B7, the “EC50 group, cGMP in GTM-3 cells” value was ≤ 1 µM. For B8, the “EC50 group, cGMP in GTM-3 cells” value was ≤ 15 µM.
